These results are taken from paper PMC5258196 (Biochemistry, 2016).

The target in assay [1] is GrxS14 (Arabidopsis thaliana) (UniProt Q84Y95). As to conditions: cited from earlier work.
Assay [2] addresses T1, S. cerevisiae monothiol glutaredoxin Grx3 (S. cerevisiae, UniProt Q03835 1-250).
T1 sequence (looked up): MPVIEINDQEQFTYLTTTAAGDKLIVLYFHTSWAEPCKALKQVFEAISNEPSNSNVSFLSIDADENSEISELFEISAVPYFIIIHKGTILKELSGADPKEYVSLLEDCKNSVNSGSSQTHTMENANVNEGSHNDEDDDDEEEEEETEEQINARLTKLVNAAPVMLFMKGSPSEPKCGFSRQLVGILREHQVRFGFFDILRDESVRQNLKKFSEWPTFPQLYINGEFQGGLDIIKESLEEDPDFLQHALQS
Put plainly: ITC. On the technique in general: In ITC the heat of successive injections is recorded.

Assay [3] concerns the target T2, E. coli monothiol glutaredoxin Grx4 (E. coli, UniProt P0AC69 1-115).
T2 sequence (looked up): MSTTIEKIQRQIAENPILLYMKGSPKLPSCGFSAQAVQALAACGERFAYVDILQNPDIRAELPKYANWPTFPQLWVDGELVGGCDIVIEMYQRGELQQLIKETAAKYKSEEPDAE
Kind of assay: ITC.

GrxS14 (Arabidopsis thaliana), sequence (Q84Y95 64-173): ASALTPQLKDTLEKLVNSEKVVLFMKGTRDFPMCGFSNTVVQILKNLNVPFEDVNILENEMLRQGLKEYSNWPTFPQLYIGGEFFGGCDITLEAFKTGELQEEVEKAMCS

By Kd is commonly meant the constant that tells how readily two partners part at equilibrium. Turning to BolA1 (from UniProt Q682I1), the Kd in assay [1] is 7 µM.

B1: S. cerevisiae Fra2 (natural protein, UniProt P53082 1-120, looked up)
chain: MTGERIEKVKINDEFAKSHFLTTQWRETKRQRHYKMPVTEQGLRERIESAIPQVYHIIVTDLSYGCGQSFDIVVVSDFFQGKSKLMRSRAVNKAVKEELQEIHAFSCKCYTEEEWSKIVV
For orientation: stoichiometry N means the number of molecules, sites or subunits per partner or assembly. B1: in assay [2], the equilibrium dissociation constant (Kd) was 20.8 ± 6.6 µM, the dH was -10.1 ± 5.4 kcal/mol and the “stoichiometry N” value is 0.4 ± 0.19 sites.

B2: E. coli BolA-like protein IbaG (natural protein, UniProt P0A9W6 1-84, looked up)
chain: MENNEIQSVLMNALSLQEVHVSGDGSHFQVIAVGELFDGMSRVKKQQTVYGPLMEYIADNRIHAVSIKAYTPAEWARDRKLNGF
Take B2: in assay [3], the affinity, expressed as Kd, was 3.4 ± 0.1 µM; the dH was -5.9 ± 0.1 kcal/mol; the “stoichiometry N” value was found to be 0.7 ± 0.01 sites.

B3: E. coli BolA (natural protein, UniProt P0ABE2 1-105, looked up)
chain: MMIRERIEEKLRAAFQPVFLEVVDESYRHNVPAGSESHFKVVLVSDRFTGERFLNRHRMIYSTLAEELSTTVHALALHTYTIKEWEGLQDTVFASPPCRGAGSIA
Take B3: in assay [3], the Kd was 4.6 ± 0.9 µM, the dH is -3.1 ± 0.1 kcal/mol and the “stoichiometry N” value is 0.97 ± 0.03 sites.
